# Assay results published in patent US11485769B2, “Peptides and combination of peptides for use in immunotherapy and methods for generating scaffolds for the use against pancreatic cancer and other cancers” (Immatics Biotechnologies GmbH, priority 2015, dated 2022).
# Target: HLA-A*02:01 (Homo sapiens, UniProt P04439, D140Y/D185E/D98H/E176V/E277Q/G131W/G231S/I119V/I121R/I166T/I218V/L300P/L318F/N151K/N90K/P208A/P217A/Q86G/Q94H/R138H/R169H/T345S)
# Assay: MHC binding assay (UV-ligand exchange, beta2m ELISA, peptide exchange yield)
# Details: binding to HLA-A*02:01 ranged by peptide exchange yield, β2m ELISA
# Text: Candidate peptides for T cell based therapies according to the present invention were further tested for their MHC binding capacity (affinity). The individual peptide-MHC complexes were produced by UV-ligand exchange, where a UV-sensitive peptide is cleaved upon UV-irradiation, and exchanged with the peptide of interest as analyzed. Only peptide candidates that can effectively bind and stabilize the peptide-receptive MHC molecules prevent dissociation of the MHC complexes. To determine the yield of the exchange reaction, an ELISA was performed based on the detection of the light chain (β2m) of stabilized MHC complexes. The assay was performed as generally described in Rodenko et al. (Rodenko et al., 2006).
# 96 well MAXISorp plates (NUNC) were coated over night with 2 ug/ml streptavidin in PBS at room temperature, washed 4× and blocked for 1 h at 37° C. in 2% BSA containing blocking buffer. Refolded HLA-A*02:01/MLA-001 monomers served as standards, covering the range of 15-500 ng/ml. Peptide-MHC monomers of the UV-exchange reaction were diluted 100 fold in blocking buffer. Samples were incubated for 1 h at 37° C., washed four times, incubated with 2 ug/ml HRP conjugated anti-μ2m for 1h at 37° C., washed again and detected with TMB solution that is stopped with […]. Absorption was measured at 450 nm. Candidate peptides that show a high exchange yield (preferably higher than 50%, most preferred higher than 75%) are generally preferred for a generation and production of antibodies or fragments thereof, and/or T cell receptors or fragments thereof, as they show sufficient avidity to the MHC molecules and prevent dissociation of the MHC complexes.
# MHC class I binding scores. Binding of HLA-class I restricted peptides to HLA-A*02:01 was ranged by peptide exchange yield: ≥10%=+; ≥20%=++; ≥50=+++; >75%=++++
row,Peptide exchange (MHC class I binding score),Substance
1,“++” (≥20%=++),1 (FVDTRTLL; listed as Homo sapiens) [compound 1]
2,“+++” (≥50=+++),2 (FGYDGDFYRA; listed as Homo sapiens) [compound 2]
3,“+++” (≥50=+++),3 (ILIGETIKI; listed as Homo sapiens) [compound 3]
4,“+++” (≥50=+++),4 (ALDPAAQAFLL; listed as Homo sapiens) [compound 4]
5,“+++” (≥50=+++),5 (ALLTGIISKA; listed as Homo sapiens) [compound 5]
6,“+++” (≥50=+++),6 (ALTGIPLPLI; listed as Homo sapiens) [compound 6]
7,“+++” (≥50=+++),7 (ALVDIVRSL; listed as Homo sapiens) [compound 7]
8,“+++” (≥50=+++),8 (ALYTGSALDFV; listed as Homo sapiens) [compound 8]
9,“++” (≥20%=++),9 (QIIDAINKV; listed as Homo sapiens) [compound 9]
10,“++” (≥20%=++),10 (VLLDKIKNL; listed as Homo sapiens) [compound 10]
11,“++” (≥20%=++),11 (ALYYNPHLL; listed as Homo sapiens) [compound 11]
12,“+++” (≥50=+++),12 (AQYKFVYQV; listed as Homo sapiens) [compound 12]
13,“++” (≥20%=++),13 (FIDSSNPGL; listed as Homo sapiens) [compound 13]
14,“+++” (≥50=+++),14 (FIIDNPQDLKV; listed as Homo sapiens) [compound 14]
15,“+++” (≥50=+++),15 (FILANEHNV; listed as Homo sapiens) [compound 15]
16,“+++” (≥50=+++),16 (GLIDYDTGI; listed as Homo sapiens) [compound 16]
17,“+++” (≥50=+++),17 (GLIDYDTGIRL; listed as Homo sapiens) [compound 17]
18,“++” (≥20%=++),18 (ALFVRLLAL; listed as Homo sapiens) [compound 18]
19,“+++” (≥50=+++),19 (ALWHDAENQTVV; listed as Homo sapiens) [compound 19]
20,“+++” (≥50=+++),20 (GLIDIENPNRV; listed as Homo sapiens) [compound 20]
21,“+++” (≥50=+++),21 (GLVDGRDLVIV; listed as Homo sapiens) [compound 21]
22,“+++” (≥50=+++),22 (ILSTEIFGV; listed as Homo sapiens) [compound 22]
23,“++” (≥20%=++),23 (KLDSSGGAVQL; listed as Homo sapiens) [compound 23]

row,Peptide exchange (MHC class I binding score),Substance
1,“++” (≥20%=++),24 (KLSENAGIQSL; listed as Homo sapiens) [compound 24]
2,“++” (≥20%=++),25 (LINPNIATV; listed as Homo sapiens) [compound 25]
3,“+++” (≥50=+++),26 (SLYTALTEA; listed as Homo sapiens) [compound 26]
4,“+++” (≥50=+++),27 (TLLAHPVTL; listed as Homo sapiens) [compound 27]
5,“+++” (≥50=+++),28 (VLDEFYSSL; listed as Homo sapiens) [compound 28]
6,“++++” (>75%=++++),29 (YILPFSEVL; listed as Homo sapiens) [compound 29]
7,“++” (≥20%=++),30 (YIYKDTIQV; listed as Homo sapiens) [compound 30]
8,“+++” (≥50=+++),31 (YLDSMYIML; listed as Homo sapiens) [compound 31]
9,“++” (≥20%=++),32 (YVDDGLISL; listed as Homo sapiens) [compound 32]
10,“++” (≥20%=++),34 (FLEDDDIAAV; listed as Homo sapiens) [compound 34]
11,“+++” (≥50=+++),35 (FLFPSQYVDV; listed as Homo sapiens) [compound 35]
12,“++” (≥20%=++),36 (FLGDLSHLL; listed as Homo sapiens) [compound 36]
13,“++” (≥20%=++),37 (FLNPDEVHAI; listed as Homo sapiens) [compound 37]
14,“+++” (≥50=+++),38 (FLTEAALGDA; listed as Homo sapiens) [compound 38]
15,“++” (≥20%=++),39 (FLTPSIFII; listed as Homo sapiens) [compound 39]
16,“++” (≥20%=++),40 (GLAPQIHDL; listed as Homo sapiens) [compound 40]
17,“++” (≥20%=++),41 (GLLAGNEKLTM; listed as Homo sapiens) [compound 41]
18,“+++” (≥50=+++),42 (ILSDMRSQYEV; listed as Homo sapiens) [compound 42]
19,“++” (≥20%=++),43 (HLGVKVFSV; listed as Homo sapiens) [compound 43]
20,“+++” (≥50=+++),44 (ILAQVGFSV; listed as Homo sapiens) [compound 44]
21,“+++” (≥50=+++),45 (ILYSDDGQKWTV; listed as Homo sapiens) [compound 45]
22,“+++” (≥50=+++),46 (TMVEHNYYV; listed as Homo sapiens) [compound 46]
23,“+++” (≥50=+++),47 (LIYKDLVSV; listed as Homo sapiens) [compound 47]

row,Peptide exchange (MHC class I binding score),Substance
1,“+++” (≥50=+++),48 (LLDENGVLKL; listed as Homo sapiens) [compound 48]
2,“++” (≥20%=++),49 (LLDGFPRTV; listed as Homo sapiens) [compound 49]
3,“+++” (≥50=+++),50 (LLFGSDGYYV; listed as Homo sapiens) [compound 50]
4,“++” (≥20%=++),51 (LLGPAGARA; listed as Homo sapiens) [compound 51]
5,“+++” (≥50=+++),52 (LLSDPIPEV; listed as Homo sapiens) [compound 52]
6,“+++” (≥50=+++),53 (LLWDPSTGKQV; listed as Homo sapiens) [compound 53]
7,“+++” (≥50=+++),54 (LTQPGPIASA; listed as Homo sapiens) [compound 54]
8,“++” (≥20%=++),55 (NLAPAPLNA; listed as Homo sapiens) [compound 55]
9,“++” (≥20%=++),56 (NLIGVTAEL; listed as Homo sapiens) [compound 56]
10,“+++” (≥50=+++),57 (RLSELGITQA; listed as Homo sapiens) [compound 57]
11,“++” (≥20%=++),58 (RQYPWGVVQV; listed as Homo sapiens) [compound 58]
12,“+++” (≥50=+++),59 (SLSESFFMV; listed as Homo sapiens) [compound 59]
13,“++++” (>75%=++++),60 (SLWEDYPHV; listed as Homo sapiens) [compound 60]
14,“++” (≥20%=++),61 (SMYDGLLQA; listed as Homo sapiens) [compound 61]
15,“+” (≥10%=+),62 (SVFPGARLL; listed as Homo sapiens) [compound 62]
16,“++++” (>75%=++++),63 (SVTGIIVGV; listed as Homo sapiens) [compound 63]
17,“++++” (>75%=++++),64 (TLFSEPKFAQV; listed as Homo sapiens) [compound 64]
18,“+++” (≥50=+++),65 (TLNEKLTAL; listed as Homo sapiens) [compound 65]
19,“++++” (>75%=++++),67 (VIWGTDVNV; listed as Homo sapiens) [compound 67]
20,“+++” (≥50=+++),68 (VLFDVTGQV; listed as Homo sapiens) [compound 68]
21,“+++” (≥50=+++),69 (VLFSGSLRL; listed as Homo sapiens) [compound 69]
